“Also recorded” adds a separate entry of the source. Bridges are numbered along the chain shown (N, C = ends). Where no end group is shown, it is not given here.

For one assay, the system named is HUVEC microfilaments. The assay is described as follows: Fluorescent staining of formalin fixed endothelial cells with Alexa 488-labeled rhEndostatin. Conditions: 50-fold molar excess (100 μM) of peptide; 40 μg/ml (2 μM) Alexa-rhEndostatin. The assay is classed as cell-based, human. The procedure:
(A), HUVECs, (B), HAECs and (C), HMVECs were incubated in the presence of 40 micrograms per milliliter (μg/ml) Alexa 488-labeled rhEndostatin and photographed at 100× magnification under Alexa 488 (green) excitation wavelength. (D) and (E), HUVECs were incubated simultaneously in anti-tropomyosin TM311 ascites fluid and 40 micrograms per milliliter (μg/ml) Alexa 488-labeled rhEndostatin followed by incubation in Alexa 594 conjugated goat anti-mouse IgG (H+L). The same field was photographed under Alexa 488 (green) and Alexa 594 (red) excitation wavelengths at 100× magnification.
HUVECs were incubated in the presence of 40 micrograms per milliliter (μg/ml) Alexa 488-labeled rhEndostatin alone (A), or in the presence of a 50-fold molar excess of control peptide (B), or E37 peptide (C). Cells were photographed using the same exposure times at 100x magnification under Alexa 488 (green) excitation wavelength.
To detect the binding of Alexa-labeled rhEndostatin 1×10^4 HUVEC, HMVEC and HAECs were plated on 1.5% gelatin coated Nalge Nunc Lab Tek II chamber slides (Naperville, Ill.) and fixed in 10% neutral buffered formalin followed by a methanol wash. The chamber slides were incubated in PBS/1% calf serum containing 40 μg/ml (2 μM) of Alexa 488-labeled rhEndostatin (Narum et al., manuscript in preparation) for 1 hr at room temperature. The slides were washed in PBS, coverslips mounted using fluorescent mounting media (Kirkegaard and Perry Laboratories, Gaithersburg, Md.) and cells photographed under Alexa 488 excitation wavelength. Co-localization studies were performed as above except cells were incubated in PBS/1% calf serum containing 1:200 mouse anti-tropomyosin TM311 (Sigma, St. Louis, Miss.) and 40 μg/ml of Alexa 488-labeled rhEndostatin followed by incubation with goat anti-mouse IgG (H+L) conjugated to Alexa 594 (Molecular Probes, Eugene, Oregon). The same fields were photographed under Alexa 488 and Alexa 594 wavelengths. […]

The test system of the next assay is B16-BL6 melanoma cells. In words: B16-BL6 experimental metastasis assay. It counts as in vivo, C57BL/6J mice. Conditions: co-injection of 1.5 nmol rhEndostatin and up to 375 nmol control peptide; p>0.11. The procedure: C57BL/6J mice were injected via the tail vein with 5×10^4 B16-BL6 melanoma cells on day 0. On day 3, groups of five mice received daily subcutaneous doses of either buffer control, 1.5 nmol (1.5 mg/kg/day) of rhEndostatin in combination with 0, 15, 75 or 375 nmol of control or E37 peptide, or control or E37 peptide alone for eleven days. All mice were sacrificed on day 14, and the number of pulmonary surface metastases in each animal counted. Error bars indicate standard deviation of the mean.
C57BL/6J mice (n=8) were injected intravenously (i.v.) with 5×10^4 B16-BL6 cells/mouse. Three days later treatment commenced. 100 μl of citrate-phosphate buffer (66 mM Sodium Phosphate, 17 mM Citric acid, 59 mM NaCl pH 6.2) containing 1.5 nmol of rhEndostatin and 100 μl of PBS containing either 0, 15, 75 or 375 nmol of control or E37 peptide were mixed and injected subcutaneously (s.c.) daily for 11 days. All mice were then sacrificed, their lungs removed and the number of surface metastases counted. Results were analyzed for statistical significance using the 2-tailed Student's t-test.
The following experiment was conducted to determine the interaction of E37 peptide and Endostatin protein. Briefly, the B16BL6 experimental metastasis assay, as known to those of skill in the art and further described in International Patent Application number PCT/US99/11418, was performed as follows. 5×10^4 B16-BL6 cells in 200 μl of PBS were injected into C57BL/6J mice via the tail vein. Three days post injection treatment was started. The injection received by eight groups of mice were: 1) citrate phosphate/PBS buffer, 2) ^30 μg Endostatin protein (in 100 μl PBS), 3) 30 μg Endostatin protein (in 200 μl PBS), 4) 30 μg Endostatin protein plus 50 times molar excess of control peptide (in 200 μl PBS), 5) 30 μg Endostatin protein plus 250 times molar excess of control peptide (in 200 μl PBS), 6) 30 μg Endostatin protein plus 10 times molar excess of E37 peptide (in 200 μl PBS), 7) 30 μg Endostatin protein plus 50 times molar excess of E37 peptide (in 200 μl PBS), and 8) 30 μg Endostatin protein plus 250 times molar excess of E37 peptide (in 200 μl PBS). Doses were administered daily for eleven days posterior to the thoracic cavity subcutaneously. All mice were sacrificed, the lungs removed and the number of surface metastases in each animal were counted under a stereo microscope.

The target in another assay is T1, rhEndostatin (Homo sapiens, UniProt P39060).
T1 construct: rhEndostatin were produced in P. pastoris and purified to homogeneity; made in house; host or cells: Pichia pastoris
T1 sequence (P39060 1572-1754 limits assumed): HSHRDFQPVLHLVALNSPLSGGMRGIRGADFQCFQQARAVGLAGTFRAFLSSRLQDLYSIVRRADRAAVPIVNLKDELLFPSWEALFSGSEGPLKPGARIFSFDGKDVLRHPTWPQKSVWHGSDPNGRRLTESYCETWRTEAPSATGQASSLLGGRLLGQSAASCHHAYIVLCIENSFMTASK
The assay is described as follows: ELISA of tropomyosin binding to rhEndostatin coated wells. Conditions: wells coated with 5 μg/ml rhEndostatin or BSA, detection with TM311 anti-tropomyosin. The procedure: FIG. 13 provides a graph showing that rhTM3 binds rhEndostatin in vitro. The wells of a 96-well plate were coated with either 5 micrograms/milliliter (μg/ml) of rhEndostatin (closed symbols) or BSA (open symbols) and incubated with increasing amounts of control E. coli lysate (circles) or tropomyosin expressing λ21-1 bacterial lysate (squares). The amount of tropomyosin binding to each well was determined spectrophotometrically following the addition of the TM311 anti-tropomyosin ascites fluid, alkaline phosphatase conjugated anti-mouse IgG and substrate. Error bars indicate standard deviation of the mean.
Plates were coated with 5 μg/ml of BSA or rhEndostatin and blocked. Dilutions of λ21-1 or control lysate were added and incubated for 1 hour at 37° C., followed by incubation with 1:500 diluted anti-tropomyosin TM311 ascites fluid (Sigma, St. Louis, Miss.). Following incubation in 1:5000 diluted anti-mouse IgG (H+L) conjugated to alkaline phosphatase (Promega, Madison, Wis.) wells were developed using Blue Phos Phosphatase Substrate (Kirkegaard and Perry, Gaithersburg, Md.) and the OD635 measured.
In this experiment the wells of a 96 well plate were either coated with 5 μg/ml of Endostatin protein or BSA protein. […] The wells were washed and incubated with anti-tropomyosin antibodies followed by anti-mouse IgG AP conjugated antibodies and developed using KPL Blue Phos microwell phosphatase solution. The OD635 was measured after a one hour incubation at room temperature and the results plotted in FIG. 8.
Recombinant human Endostatin protein and hTM3 were also shown to interact in a capture ELISA (FIG. 8).
On the technique in general: In an ELISA, binding on a coated surface is turned into a signal by an enzyme label.

Assay [1] has as its target T2, rhTM3 (human tropomyosin isoform 3) (Homo sapiens, UniProt P09493).
T2 construct: made in house; host or cells: E. coli BL21 (DE3), pET-21a(+)
The assay is described as follows: Surface plasmon resonance (BIAcore) binding to immobilized rhTM3. The procedure: (A), 0, 10, 20, 40, 80 and 160 micromolar (μM) of rhEndostatin were injected at 5 microliters per minute (μl/minute) for 960 seconds through a biosensor flow cell that had been activated and blocked as a control for bulk refractive index and subsequently through a flow cell to which 3200 response units (RU) of rhTM3 had been immobilized. The binding kinetics were recorded and the differences between the two curves plotted for each rhEndostatin concentration. (B), 0, 11.5, 23 and 46 micromolar (μM) of rhAngiostatin were injected at 5 microliters per minute (μl/minute) for 900 seconds over a flow cell containing 3200 RU of rhTM3 as above. Samples were run in duplicate, the data corrected for bulk shift and the average of the 2 curves plotted. (C), Injection of 5 micromolar (μM) of rhEndostatin at 5 microliters per minute (μl/minute) for 240 seconds in the presence of 0, 6, 15, 30 and 45 micromolar (μM) of soluble rhTM3 over a flow cell containing 2000 RU of rhTM3. Samples were run in duplicate, the reference cell values subtracted and the average of each of the 2 curves plotted. The spikes in RU seen at the beginning and end of each injection are due to lag in flow caused by the rhTM3 and reference cells being non-adjacent.
Interactions between purified soluble rhEndostatin and rhTM3 were evaluated by surface plasmon resonance using the BIAcore 3000 (BiaCore, Piscataway, N.J.). The purified rhTM3 was immobilized on the flow cell of a CM-5 BIAcore biosensor chip. The running buffer was 0.01 M HEPES, pH 7.4, 0.15M NaCl and 0.005% polysorbate 20 (v/v). The competition experiments involving soluble rhTM3 were performed using PBS pH 7.4 as running buffer. All measurements were performed at 25° C. To correct for differences in bulk refraction all protein preparations were passed over an activated and blocked flow cell to which no protein had been coupled. Effects due to bulk shift were subtracted from experimental data.
Surface plasmon resonance performed using the BIAcore 3000 (BiaCore, Piscataway, N.J.) was used to assess the kinetics of rhEndostatin/rhTM3 binding. […]

Assay [2] deals with recombinant human Endostatin protein (human). The assay is described as follows: cell-based or functional assay.

T2 sequence (P09493 1-284 isoform P09493-3): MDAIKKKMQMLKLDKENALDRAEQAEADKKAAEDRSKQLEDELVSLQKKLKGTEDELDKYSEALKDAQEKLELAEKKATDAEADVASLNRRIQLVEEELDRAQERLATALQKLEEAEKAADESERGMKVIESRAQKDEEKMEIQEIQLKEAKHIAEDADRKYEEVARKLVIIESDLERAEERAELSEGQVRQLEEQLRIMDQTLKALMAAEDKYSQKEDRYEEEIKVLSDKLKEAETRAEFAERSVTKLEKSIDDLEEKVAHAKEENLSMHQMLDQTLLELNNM

Turning to “CSNSDKPKCGGGS (disulfide 1-9 (inferred)) [control peptide, reference compound]”, the “inhibition of binding of Alexa-labeled rhEndostatin to HUVEC microfilaments” value in the assay on HUVEC microfilaments is given as “not”. In the assay with B16-BL6 melanoma cells, the “incidence of metastatic lesions on the lungs versus 1.5 nmol rhEndostatin alone” value is reported as “statically indistinguishable”.

Turning to “rhTM3: recombinant human tropomyosin isoform 3 (fibroblast tropomyosin), SEQ ID NO:119; also as λ21-1 bacterial lysate (EKVAHAKEENLSMHQMLDQTLLELNNM)”, the “binding of tropomyosin to rhEndostatin” value was “binds” with rhEndostatin, “higher immunoreactivity in rhEndostatin coated wells than in wells coated with BSA; also recorded: binds” in the assay with rhEndostatin (listed as hTM3) and “considerably more tropomyosin bound” in the assay with rhEndostatin (listed as tropomyosin). Also, in assay [1] (5 μM rhEndostatin with 0-45 μM soluble rhTM3, 2000 RU immobilized rhTM3), the “competition for binding of rhEndostatin to immobilized rhTM3” value is “competed for the binding of rhEndostatin”.

Take CTHWWHKRCGGGS (disulfide 1-9) [E37 peptide (synthetic, cyclized)]: in assay [2], the decrease in the anti-tumor activity of rhEndostatin (B16-BL6 lung metastases), 1.5 nmol rhEndostatin co-injected with 15 nmol E37 peptide was found to be 11 percent; the decrease in the anti-tumor activity of rhEndostatin (B16-BL6 lung metastases), 1.5 nmol rhEndostatin co-injected with 75 nmol E37 peptide came to 30.5 percent; the decrease in the anti-tumor activity of rhEndostatin (B16-BL6 lung metastases), 1.5 nmol rhEndostatin co-injected with 375 nmol E37 peptide was 84.5 percent; the inhibition of lung metastasis, 1.5 nmol rhEndostatin co-administered with a 250-fold molar excess of E37 peptide was found to be 11%. In assay [2], the inhibition of the formation of lung metastasis (B16BL6), 30 µg Endostatin protein plus 10 fold molar excess of E37 peptide was 76%; the inhibition of the formation of lung metastasis (B16BL6), 30 µg Endostatin protein plus 50 fold molar excess of E37 peptide came out at 61%; the inhibition of the formation of lung metastasis (B16BL6), 30 µg Endostatin protein plus 250 fold molar excess of E37 peptide is 21%.

B1: rhAngiostatin K1-3: recombinant human Angiostatin kringles 1-3 produced in P. pastoris, used as negative control (protein)
chain: VYLSECKTGNGKNYRGTMSKTKNGITCQKWSSTSPHRPRFSPATHPSEGLEENYCRNPDNDPQGPWCYTTDPEKRYDYCDILECEEECMHCSGENYDGKISKTMSGLECQAWDSQSPHAHGYIPSKFPNKNLKKNYCRNPDRELRPWCFTTDPNKRWELCDIPRCTTPPPSSGPTYQCLKGTGENYRGNVAVTVSGHTCQHWSAQTPHTHNRTPENFPCKNLDENYCRNPDGKRAPWCHTTNSQVRWEYCKIPSCDSSPV
In the case of B1, the “specific binding to immobilized rhTM3” value in assay [1] (negative control, similar concentrations (0-46 μM) passed over the rhTM3 chip) is reported as “no evidence of specific binding”.

The values above are taken from patent publication US20020077289A1, “Angiostatin and endostatin binding proteins and methods of use” (priority 2000, published 2002).
